Experimental data taken from PMC13186983.

What was measured:
[1] = target: T1, Rpt3 (ATPase subunit of the yeast 26S proteasome) (S. cerevisiae) (UniProt P33298)
T1 sequence: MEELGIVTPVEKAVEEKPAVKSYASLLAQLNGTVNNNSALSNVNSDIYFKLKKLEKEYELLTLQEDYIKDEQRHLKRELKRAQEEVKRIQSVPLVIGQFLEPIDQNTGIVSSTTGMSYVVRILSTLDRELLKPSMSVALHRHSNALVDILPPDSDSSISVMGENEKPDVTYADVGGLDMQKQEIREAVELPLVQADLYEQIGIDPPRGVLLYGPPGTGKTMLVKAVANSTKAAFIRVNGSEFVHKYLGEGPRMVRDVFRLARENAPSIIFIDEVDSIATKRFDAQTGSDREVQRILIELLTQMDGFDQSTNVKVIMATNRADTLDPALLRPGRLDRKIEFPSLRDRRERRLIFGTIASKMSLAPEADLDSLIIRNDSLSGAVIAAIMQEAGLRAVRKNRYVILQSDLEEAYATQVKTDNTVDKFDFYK

[2] = target: T1, Rpt3 (ATPase subunit of the yeast 26S proteasome) (S. cerevisiae); remark: listed apart in the source
[3] = target: wild-type 26S proteasome, reconstituted, LD655 acceptor-labeled on Rpt1, biotinylated core (S. cerevisiae | yeast) (UniProt P33299)
[4] = target: YA4-mutant 26S proteasome, reconstituted, LD655 acceptor-labeled on Rpt1, biotinylated core (S. cerevisiae | yeast) (UniProt P33299)
[5] = target: YA6-mutant 26S proteasome, reconstituted, LD655 acceptor-labeled on Rpt1, biotinylated core (S. cerevisiae | yeast) (UniProt P33299)
[6] = target: wild-type 26S proteasome, reconstituted, LD655 acceptor-labeled on Rpt1, biotinylated core (S. cerevisiae | yeast) (UniProt P33299); remark: listed apart in the source
[7] = target: YA4-mutant 26S proteasome, reconstituted, LD655 acceptor-labeled on Rpt1, biotinylated core (S. cerevisiae | yeast) (UniProt P33299); remark: listed apart in the source
[8] = target: YA6-mutant 26S proteasome, reconstituted, LD655 acceptor-labeled on Rpt1, biotinylated core (S. cerevisiae | yeast) (UniProt P33299); remark: listed apart in the source

With “Rpt6 E140A (from UniProt Q01939 1-405) (natural protein)” the basal ATPase rate of the reconstituted proteasome with Rpt6 E140A (NADH-coupled assay) [1] was 108 min⁻¹.
“Rpt6 K141A (from UniProt Q01939 1-405) (natural protein)” showed a basal ATPase rate of the reconstituted proteasome with Rpt6 K141A (NADH-coupled assay) [1] of 87 min⁻¹.
“Rpt6 with the pore-1 loop Tyr to Ala mutation (YA6) (from UniProt Q01939 1-405) (natural protein)” was tested, and the basal ATPase rate of the reconstituted YA6 proteasome (NADH-coupled assay) [2] was 101 min⁻¹.
For “ubiquitinated titin I27 substrate, LD555 donor-labeled (from UniProt P0CG63 1-76)”, the frequency of terminal release of titin I27 during the unfolding dwell, single-molecule FRET [3] was 18.1%, the frequency of terminal release of titin I27 during the unfolding dwell, single-molecule FRET [4] was 37.5% and the frequency of terminal release of titin I27 during the unfolding dwell, single-molecule FRET [5] was 33.3%.
With “ubiquitinated titin I27^V15P substrate, LD555 donor-labeled (from UniProt P0CG63 1-76)” the combined time constant for substrate binding, tail insertion and engagement; bulk stopped-flow FRET, Cy3-labeled proteasome with oPA, 2 µM Cy5-labeled substrate, 25 °C [6] was 6.8 s, the combined time constant for substrate binding, tail insertion and engagement; bulk stopped-flow FRET, Cy3-labeled proteasome with oPA, 2 µM Cy5-labeled substrate, 25 °C [7] was 14.3 s and the combined time constant for substrate binding, tail insertion and engagement; bulk stopped-flow FRET, Cy3-labeled proteasome with oPA, 2 µM Cy5-labeled substrate, 25 °C [8] was 18 s.
